Measurements: publication PMC6920932

What was measured:
BrCCCBr = assay: purified protein; conditions: 100 mM glycine buffer pH 8.6, 37 °C, cooperativity and partial substrate inhibition
N#CCCCBr = assay: purified protein; conditions: 100 mM glycine buffer pH 8.6, 37 °C, substrate inhibition
[1] = molecular target: haloalkane dehalogenase DmxA wild type from Marinobacter sp. ELB17 (Marinobacter sp. ELB17); assay: SEC; gel filtration chromatography of purified DmxA wt; conditions not told in the text shown
[2] = molecular target: haloalkane dehalogenase DmxA wild type from Marinobacter sp. ELB17 (Marinobacter sp. ELB17); assay: native gel or EMSA; native polyacrylamide gel, 4 °C, 115 V, Coomassie stain; reduced (10 mM DTT, degassed, nitrogen) and non-reduced samples compared; LinB (34 kDa, monomer) and DbjA (66 kDa, dimer) as size standards
[3] = molecular target: haloalkane dehalogenase DmxA wild type from Marinobacter sp. ELB17 (Marinobacter sp. ELB17); assay: not stated; DmxA wt in solution; the discussion does not say which experiment gave the share of dimer

| Substance | Km (BrCCCBr) [µM] | kcat (BrCCCBr) [s⁻¹] | Km (N#CCCCBr) [µM] | kcat (N#CCCCBr) [s⁻¹] | stoichiometry N [1] | stoichiometry N [2] | percent of the enzyme present as a dimer [3] [%] |
| --- | --- | --- | --- | --- | --- | --- | --- |
| DmxA (Marinobacter sp. ELB17) | 30 | 2.61 | 670 | 1.89 |  |  |  |
| haloalkane dehalogenase DmxA wild type from Marinobacter sp. ELB17 (enzyme) |  |  |  |  | 2 | 2 | < 30 |
